The target in the test is mature type GnT-V. Briefly: cell-based or functional assay.

In the case of γ-secretase (enzyme), the GnT-V activity in culture solution, PS-1 ΔE9 cells against control cells amounted to 4 fold; the ratio of the GnT-V activity in culture solution (extracellular) to that in the cell, PS-1 ΔE9 cells was 3.5; the ratio of the GnT-V activity in culture solution (extracellular) to that in the cell, PS-1 ΔE9 cells against control cells stood at 3 fold; the ratio of the GnT-V activity in culture solution (extracellular) to that in the cell, control cells without high expression of variant presenilin-1 was found to be 1.2.

These data come from US20050148516A1.
